Assay results taken from article PMC3242506 (Biochemical Journal, 2011).

What was measured:
[1] = molecular target: the molecule itself; assay: SDS/PAGE and Western blot without cross-linker
[2] = molecular target: the molecule itself; assay: cross-linking
[3] = molecular target: the molecule itself; assay: cross-linking; remark: listed apart in the source

| Protein | stoichiometry N [1] | stoichiometry N [2] | stoichiometry N [3] |
| --- | --- | --- | --- |
| domain II of human TPC1 (TPC1^427–816) (domain or fragment, N-glycosylated (bands sensitive to PNGase F)) not shown | 2 | 2.2 |  |
| domain II of human TPC2 (TPC2^422–752) (domain or fragment, UniProt Q8NHX9 422-752, looked up) LQSAQFLFGHYYFDYLGNLIALANLVSICVFLVLDADVLPAERDDFILGILNCVFIVYYLLEMLLKVFALGLRGYLSYPSNVFDGLLTVVLLVLEISTLAVYRLPHPGWRPEMVGLLSLWDMTRMLNMLIVFRFLRIIPSMKLMAVVASTVLGLVQNMRAFGGILVVVYYVFAIIGINLFRGVIVALPGNSSLAPANGSAPCGSFEQLEYWANNFDDFAAALVTLWNLMVVNNWQVFLDAYRRYSGPWSKIYFVLWWLVSSVIWVNLFLALILENFLHKWDPRSHLQPLAGTPEATYQMTVELLFRDILEEPGEDELTERLSQHPHLWLCR |  | 2.2 |  |
| domain I of human TPC1 (TPC1^1–347) (domain or fragment) not shown |  | 2.1 |  |
| domain I of human TPC2 (TPC2^1–339) (domain or fragment, UniProt Q8NHX9 1-339, looked up) MAEPQAESEPLLGGARGGGGDWPAGLTTYRSIQVGPGAAARWDLCIDQAVVFIEDAIQYRSINHRVDASSMWLYRRYYSNVCQRTLSFTIFLILFLAFIETPSSLTSTADVRYRAAPWEPPCGLTESVEVLCLLVFAADLSVKGYLFGWAHFQKNLWLLGYLVVLVVSLVDWTVSLSLVCHEPLRIRRLLRPFFLLQNSSMMKKTLKCIRWSLPEMASVGLLLAIHLCLFTMFGMLLFAGGKQDDGQDRERLTYFQNLPESLTSLLVLLTTANNPDVMIPAYSKNRAYAIFFIVFTVIGSLFLMNLLTAIIYSQFRGYLMKSLQTSLFRRRLGTRAAFE | 2 | 2.3 |  |
| first four TM regions of human TPC1 (TPC1^1–225) (domain or fragment) not shown |  |  | 2 |
